# Data taken from patent US6979572B1, “Compositions and methods for inhibiting inward-rectifier potassium channels” (Trustees of the University of Pennsylvania, priority 1998, dated 2005).
# Residue numbers refer to the chain shown, from its start. Where two headings read alike, the source gives them in different places. Peptide text beside a SMILES is read from it.
# T1: GIRK1/4 channel (Rattus norvegicus, UniProt P48548+P63251)
# T1 construct: expressed in transfected cells; host or cells: Xenopus laevis oocytes (cRNA injection)
# T1 sequence (P63251 1-501): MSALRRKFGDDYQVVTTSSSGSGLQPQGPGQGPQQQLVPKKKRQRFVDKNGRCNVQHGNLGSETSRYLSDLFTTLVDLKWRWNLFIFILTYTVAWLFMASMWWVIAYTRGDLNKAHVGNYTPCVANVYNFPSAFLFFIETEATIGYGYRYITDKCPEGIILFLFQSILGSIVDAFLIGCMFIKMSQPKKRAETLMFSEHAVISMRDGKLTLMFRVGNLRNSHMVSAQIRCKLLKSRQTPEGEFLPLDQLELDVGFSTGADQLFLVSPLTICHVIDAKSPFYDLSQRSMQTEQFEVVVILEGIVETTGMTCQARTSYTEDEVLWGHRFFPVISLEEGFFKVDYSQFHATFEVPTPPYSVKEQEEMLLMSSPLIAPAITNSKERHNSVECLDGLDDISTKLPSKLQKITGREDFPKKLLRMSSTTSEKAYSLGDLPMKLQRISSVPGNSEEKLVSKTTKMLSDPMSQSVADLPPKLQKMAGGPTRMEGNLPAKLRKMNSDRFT
# T1 sequence (P48548 1-419): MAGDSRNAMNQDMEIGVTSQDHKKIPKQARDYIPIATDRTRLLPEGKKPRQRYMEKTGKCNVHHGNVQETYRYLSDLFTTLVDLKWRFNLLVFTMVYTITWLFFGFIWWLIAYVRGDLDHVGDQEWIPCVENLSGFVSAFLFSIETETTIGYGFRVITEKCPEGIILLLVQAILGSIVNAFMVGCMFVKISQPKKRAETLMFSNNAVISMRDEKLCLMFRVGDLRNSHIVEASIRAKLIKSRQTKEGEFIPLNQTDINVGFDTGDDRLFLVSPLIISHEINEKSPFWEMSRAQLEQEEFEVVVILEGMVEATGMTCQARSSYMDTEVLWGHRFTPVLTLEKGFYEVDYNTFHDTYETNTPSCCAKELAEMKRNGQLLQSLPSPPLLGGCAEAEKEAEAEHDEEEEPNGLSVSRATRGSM
# T2: GIRK1/4 inward-rectifier K+ channel, P63251
# T2 chain 1: T1 sequence (P63251 1-501)
# T2 chain 2: T1 sequence (P48548 1-419)
# T3: ROMK1 inward-rectifier K+ channel (wild-type), P35560
# T3 chain: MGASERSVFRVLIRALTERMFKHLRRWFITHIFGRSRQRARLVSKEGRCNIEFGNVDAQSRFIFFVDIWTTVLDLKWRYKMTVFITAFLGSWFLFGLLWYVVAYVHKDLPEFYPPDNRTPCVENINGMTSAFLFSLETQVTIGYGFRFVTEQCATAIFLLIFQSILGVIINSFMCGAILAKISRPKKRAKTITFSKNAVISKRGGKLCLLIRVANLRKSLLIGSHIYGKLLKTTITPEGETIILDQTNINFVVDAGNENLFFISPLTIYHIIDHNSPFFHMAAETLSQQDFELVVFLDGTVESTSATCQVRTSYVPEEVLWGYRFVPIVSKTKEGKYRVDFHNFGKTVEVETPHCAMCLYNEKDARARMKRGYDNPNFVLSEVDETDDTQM
# T4: ROMK1 F146A channel, P35560
# T4 chain: T3 chain with F146A
# T5: ROMK1 G127S channel, P35560
# T5 chain: T3 chain with G127S
# T6: ROMK1 N124A channel, P35560
# T6 chain: T3 chain with N124A
# T7: ROMK1 N171D channel, P35560
# T7 chain: T3 chain with N171D
# T8: ROMK1 I142L channel, P35560
# T8 chain: T3 chain with I142L
# How the values were obtained:
# [1] = target: T1, GIRK1/4 channel; experiment: cell-based; details: for inhibition at 1 µM: read-out: inhibition of the GIRK1/4 channel
# [2] = target: T2, GIRK1/4 inward-rectifier K+ channel, …
# [3] = target: T3, ROMK1 inward-rectifier K+ channel …
# [4] = target: T4, ROMK1 F146A channel, P35560
# [5] = target: T5, ROMK1 G127S channel, P35560
# [6] = target: T6, ROMK1 N124A channel, P35560
# [7] = target: T7, ROMK1 N171D channel, P35560
# [8] = target: T8, ROMK1 I142L channel, P35560
# [9] = target: T2, GIRK1/4 inward-rectifier K+ channel, …; experiment: cell-based or functional assay
# [10] = target: T2, GIRK1/4 inward-rectifier K+ channel, …
# [11] = target: T2, GIRK1/4 inward-rectifier K+ channel, …
molecule,measurement,setting,value
"CC[C@H](C)[C@H](N)C(=O)N[C@@H](CCCCN)C(=O)N[C@H]1CSSC[C@@H]2NC(=O)[C@H]([C@@H](C)CC)NC(=O)[C@H](Cc3c[nH]cn3)NC(=O)[C@@H]3CCCN3C(=O)[C@H](CCCCN)NC(=O)[C@H]([C@@H](C)CC)NC(=O)[C@H](C(C)C)NC(=O)[C@H](Cc3c[nH]cn3)NC(=O)[C@H](CCCNC(=N)N)NC(=O)[C@H](CCCCN)NC(=O)[C@H](CSSC[C@@H](C(=O)NCC(=O)N[C@@H](CCCCN)C(=O)N[C@@H](CC(N)=O)C(N)=O)NC(=O)[C@H]([C@@H](C)CC)NC(=O)[C@H](CCCCN)NC(=O)[C@H](CCCNC(=N)N)NC2=O)NC(=O)[C@H](CC(N)=O)NC1=O [MCDP, mast cell degranulating peptide] (HELM PEPTIDE1{I.K.C.N.C.K.R.H.V.I.K.P.H.I.C.R.K.I.C.G.K.N.[am]}$PEPTIDE1,PEPTIDE1,3:R3-15:R3|PEPTIDE1,PEPTIDE1,5:R3-19:R3$$$V2.0; N-terminus and C-terminus assumed; bridges inferred)","effect on / sensitivity of the GIRK1/4 channel, in words",[1],do not inhibit the activity
same,inhibition at 1 µM,[1],20 to 30%
CC(C)C[C@@H]1NC(=O)[C@H](C)NC(=O)[C@H]([C@@H](C)O)NC(=O)[C@H](CCC(=O)O)NC(=O)[C@@H]2CCCN2C(=O)[C@H](C)NC(=O)[C@H](CCCCN)NC(=O)[C@@H]2CSSC[C@@H](C(=O)N[C@@H](CCC(N)=O)C(=O)N[C@@H](CCC(N)=O)C(=O)N[C@@H](Cc3cnc[nH]3)C(N)=O)NC(=O)[C@H](CCCNC(=N)N)NC(=O)[C@H](CCCNC(=N)N)NC(=O)[C@H](C)NC(=O)[C@H](CSSC[C@H](N)C(=O)N[C@@H](CC(N)=O)C(=O)N2)NC1=O [apamin],Kd,"[1]; GIRK1/4, read-out: affinity of the channel (Kd)",> 1000 nM
same,inhibition at 1 µM,[1]; at 1 μM concentration,20 to 30%
ALCNCNRIIIPHMCWKKCGKK (modifications not checked) [synthetic tertiapin],Kd,[2],8.6 nM
same,Kd,[3],2 nM
same,Kd,[4],65.2 nM
same,Kd,[5],2.7 nM
same,Kd,[6],13.9 nM
same,Kd,[7],1.5 nM
same,fold lower affinity than the wild-type ROMK1 channel,[8],8 fold
same,inhibition of the GIRK1/4 current at 10 nM,[9],50%
same,Kd,[10],8 nM
ALCNCNRIIIPHMCWKKCGKK (modifications not checked) [native tertiapin],Kd,[2],8.2 nM
"CNCKAPETALCARRCQQH (modifications not checked) [apamin, P01500 28-45]",Kd,[11],> 1000 nM
same,fold lower affinity than for tertiapin,[10],> 100 fold
"IKCNCKRHVIKPHICRKICGKN (modifications not checked) [mast cell degranulating peptide, P01499 28-49]",Kd,[11],> 1000 nM
same,fold lower affinity than for tertiapin,[10],> 100 fold
